Assay: soluble on expression in E. coli; label from the status in PepcDB or PDB records

| Sequence | soluble on expression in E. coli |
| --- | --- |
| AARRKIAKDLGKQVTQAMQTLSMQGGRFEAALTGGAPSAHGSEQVEFLVAGHAGSTPRPLAKVASGGELSRISLALSVIASRAARVPTLIFDEVDSGVGGAVAEAVGKLLRELGQRHQVLCVTHLPQVAACAHAQYRVSKVESGGSTRSRIAELDAEARVEEVARMLGGIKITATTRDHAREMLGGHTAPAA | not soluble |
| AAVIEKRATCSNGKTVGDASCCAWFDVLDDIQQNLFHGGQCGAEAHESIRLVFHDSIAISPAMEAQGKFGGGGADGSIMIFDDIETAFHPNIGLDEIVKLQKPFVQKHGVTPGDFIAFAGAVALSNCPGAPQMNFFTGRAPATQPAPDGLVPEPFHTVDQIINRVNDAGEFDELELVFMLSAHSVAAVNDVDPTVQGLPFDSTPGIFDSQFFVETQLRGTAFPGSGGNQGEVESPLPGEIRIQSDHTIARDSRTACEWQSFVNNQSKLVDDFQFIFLALTQLGQDPNAMTDCSDVIPQSKPIPGNLPFSFFPAGKTIKDVEQACAETPFPTLTTLPGPETSVQRIPPPPGA | soluble |
| ACAWLEAQEEEEVGFPVRPQVPLRPMTYKAAVDLSHFLKEKGGLEGLIHSQRRQDILDLWIYHTQGYFPDWQNYTPGPGVRYPLTFGWCYKLVPVEPDKVEEANKGENTSLLHPVSLHGMDDPEREVLEWRFDSRLAFHHVARELHPEYFKN | soluble |
| ACTKNAIAQTGFNKDKYFNGDVWYVTDYLDLEPDDVPKRYCAALAAGTASGKLKEALYHYDPKTQDTFYDVSELQVESLGKYTANFKKVDKNGNVKVAVTAGNYYTFTVMYADDSSALIHTCLHKGNKDLGDLYAVLNRNKDAAAGDKVKSAVSAATLEFSKFISTKENNCAYDNDSLKSLLTK | soluble |
| ADKNPGSENMTNTIGPHDRGGSSPIYNILNSYLTAYNGSHHLYDRMSFLCLSSQNTLNGACPSSDAPGTATIDGETNITLQFTEKRSLIKRELQIKGYKQFLFKNANCPSKLALNSSHFQCNREQASGATLSLYIPAGELNKLPFGGVWNAVLKLNVKRRYDTTYGTYTINITVNLTDKGNIQIWLPQFKSNARVDLNLRPTGGGTYIGRNSVDMCFYDGYSTNSSSLEIRFQDDNSKSDGKFYLKKINDDSKELVYTLSLLLAGKNLTPTNGQALNINTASLETNWNRITAVTMPEISVPVLCWPGRLQLDAKVKNPEAGQYMGNIKITFTPSSQTLDNKQVEKNITVTASVDPVIDLLQADGNALPSAVKLAYSPASKTFESYRVMTQVHTNDATKKVIVKLADTPQLTDVLNSTVQMPISVSWGGQVLSTTAKEFEAAALGYSASGVNGVSSSQELVISAAPSTAGTAPTAGNYSGVVSLVMTLGSDNKQVEKNITVTASVDPVIDLLLEHHHHHH | soluble |
| ADRNLRDLLAPWVPDAPSRALREMTLDSRVAAAGDLFVAVVGHQADGRRYIPQAIAQGVAAIIAEAKDEATDGEIREMHGVPVIYLSQLNERLSALAGRFYHEPSDNLRLVGVTGTNGKTTTTQLLAQWSQLLGEISAVMGTVGNGLLGKVIPTENTTGSAVDVQHELAGLVDQGATFCAMEVSSHGLVQHRVAALKFAASVFTNLSRDHLDYHGDMEHYEAAKWLLYSEHHCGQAIINADDEVGRRWLAKLPDAVAVSMEDHINPNCHGRWLKATEVNYHDSGATIRFSSSWGDGEIESHLMGAFNVSNLLLALATLLALGYPLADLLKTAARLQPVCGRMEVFTAPGKPTVVVDYAHTPDALEKALQAARLHCAGKLWCVFGCGGDRDKGKRPLMGAIAEEFADVAVVTDDNPRTEEPRAIINDILAGMLDAGHAKVMEGRAEAVTCAVMQAKENDVVLVAGKGHEDYQIVGNQRLDYSDRVTVARLLGVIARSHH | soluble |
| ADSVFISGHKNADMDSLGAALGIWRMSRLHDLTAYIIIDDQNLQRDVKLVIGKINDEVDAANEKLKNQATDGKTPKLIEQPFITEKKALSLATDQSLLVLVDHSRPSISAAGQLLEKLKSSLIVIDHHRIADESFSEKPILFYVEQYASSTCELVTELLGYEDRRKSPLTKVEATALLGGIQLDTKGFTSHSGSRTFDAASFLRAAGADAQLLSSFGKESK | not soluble |
| AEIDTSSIVEMVQGAEDAPVEVIEYASYTCPHCAAFHEGPYKKLKADFIDTGKVRFIYREVYFDRYGLWASMVARCAGPEKFFGISDLIYKGQAEWSRAGGPAEIAEELRKIGRLAGIENDKLEACLGDATKAQTLVAWYQEHATRDDINSTPSFMINGKKVENQAYDGFKALIEAELGN | not soluble |
| AEPDTESSELSGSVSYRIVSVVNTITASHWDEKELLDKAELIDYPVRKCAHMSEYAILTLLGFLTFSFLHGRGRFLVPIGVTFLYACTDEFHQLFVPGRAGR | not soluble |
| AEQLRGEPWFHGKLSRREAEALLQLNGDFLVRESTTTPGQYVLTGSQSGQPKHLLLVDPEGVVRTKDHRFESVSHLISYHMDNHLPIISAGSELCLQQPVERKLLEH | soluble |
| AFELPPLPYAHDALQPHISKETLEFHHDKHHNTYVVNLNNLVPGTEFEGKTLEEIVKTSSGGIFNNAAQVWNHTFYWNCLSPNAGGQPTGALADAINAAFGSFDKFKEEFTKTSVGTFGSGWGWLVKKADGSLALASTIGAGCPLTIGDTPLLTCDVWEHAYYIDYRNLRPKYVEAFWNLVNWAFVAEQFEGKTYKV | soluble |
| AGDIAIIGLAGRYPKAANIHEFWNNLKEGKDCVSEIPESRWDWQRLEGITSPSGKDISKWGGFIDDPDCFDPQFFRITPREAETMDPQERLFLETCWETIEDAGYTPKTLAKPKGRNKRQHVGVFAGVMHKDYTLVGAEEASAENVFPLSLNYAQIANRVSYFCNFHGPSMAVDTVCSSSLTAVHLALESIRHGECDVALAGGVNLSLHPNKYMTYGVWDMFSTDGHCRTFGKDGDGYVPAEGIGAVLLKPLRQAEEDGDRIYAVIKGSAVNHVGTVSGISVPSPVSQADLIETCLEKTGIDPRTISYVEAHGTGTSLGDPIEIQGLVKAFRQYTQDRQFCSIGSVKSNIGHAESAAGISGLSKVALQLHHQKLVPSLHSEELNPYVDFEKSPFYVQHETETWKQPVIKENGEDVPYPRRAGISSFGATGSNAHIILEEH | soluble |
| AGQQQPLPVPPLLESRRGQPLFMTVQRAHWSFTPGTRASVWGINGRYLGPTIRVWKGDDVKLIYSNRLTENVSMTVAGLQVPGPLMGGPARMMSPNADWAPVLPIRQNAATLWYHANTPNRTAQQVYNGLAGMWLVEDEVSKSLPIPNHYGVDDFPVIIQDKRLDNFGTPEYNEPGSGGFVGDTLLVNGVQSPYVEVSRGWVRLRLLNASNSRRYQLQMNDGRPLHVISGDQGFLPAPVSVKQLSLAPGERREILVDMSNGDEVSITCGEAASIVDRIRGFFEPSSILVSTLVLTLRPTGLLPLVTDSLPMRLLPTEIMAGSPIRSRDISLGDDPGINGQLWDVNRIDVTAQQGTWERWTVRADEPQAFHIEGVMFQIRNVNGAMPFPEDRGWKDTVWVDGQVELLVYFGQPSWAHFPFYFNSQTLEMADRGSIGQLLVNPVPRSHHHHHH | soluble |
| AHHHHHHASAKWVCKICGYIYDEDAGDPDNGISPGTKFEELPDDWVCPICGAPKSEFEKLEDGSACYSSSPEVIVLREYLLIKIHEDGVIKIPQELAYEVGLVKGAYFLVEIDTDIKELHVERVALPGKKLVEIELVVEDKPGVLAKIAGILGKNGINILFNEAEELESLGLSAIVAVVDVSGAKISLKDLESTLKEINEVKEVKIVEIE | soluble |
| AHHHHHHASAKWVCKICGYIYDEDAGDPDNGISPGTKFEELPDDWVCPICGAPKSEFEKLEDGSPKLMTGFVRASGYANKVRRVLFAITRGKVFPEEVVKAAGELNKIIFEKLQEMGVKKEDVVRISVDFNIEDGKIVWNLDSLEIETYKKEEEEKLALAMEEVEHMEKMFEETVKELEALSDKLREISKEISELVERMKQEYTGLKLRSE | soluble |
| AHHHHHHGSINNAQPPIYEEGLEELMQELKGKYHATNDYRWAILNSDITFITVGTPSKPDGSIDLTHVKQAAKSIGKALRDKEDYHVVVVKSTVLPGTTEEVVKPILEKHSGKKAFKDFGLAMNPEFLREGVALKDFLNPDRIVLGVQDEKTKKILEELYEPINAPKLIVDIKTAEMIKYASNAFLATKISFANEIGNICKKLGIDSWKVFEGVGLDHRISPHFFKTGIGFGGSCFPKDVKALIKKAEEIGENPLILKAVIEVNERQPLKMIELLKKHIPELKGRKIGVLGLAFKPNTDDVRETRAYIIIKKLLEEGASVIAYDPKAMENFKRFYPDVSGGIEYATSPEDVLKSTEIILIVTEWPDFEELDYSGKIVIDGRRIKAAERTARIYEGVCW | soluble |
| AHHHHHHGSKAFISIDLEGLPYIVSREHLFVKGALYNEARKIATKIAKIAAEKLHEEGFEEIVIADSHGPMVNIIPEEMPSYVSIVRGFPRPLSMVAFGKGSDIAIFLGYHAKAGTSFATFDHTYSGATIDKIIISGIEVSEFLLNSMVLGEWGVPIGLVAGDEALKEDLKYVPWAEFIPLKKASGRYSALSPSMEAIEKELKAGIKRAVEKLNNKELRAFKIETPVDVEIRFLNSAYAEVADLLPGVERIDGKTIRFTANTVEDAYKIMEVLTLAAAGVSYIVSR | not soluble |
| AHHHHHHGSKAMEFVGYKKSGKTTCVENVAKVLKKEKGYRVAIAKSMHSNFDKEETDTWKFSRIADYVIVHAQDIDGLLFKAKDVNALFSMVSADILLIEGFKSITHVPKVICAKSEEEVRELNNGLAIAVSGVIANKGIKEIDGLPVINATKEPEKLAELVEKKGFMLPNIDCGLCGYNCAEMAKLIVKGEKTVKDCVVLSSTPKVTIKIDGQVLPLKDWVQELVEKTIKGMLSAMKGYREGRKIEIVIKE | soluble |
| AHHHHHHGSKERLEKLVKFMDENSIDRVFIAKPVNVYYFSGTSPLGGGYIIVDGDEATLYVPELEYEMAKEESKLPVVKFKKFDEIYEILKNTETLGIEGTLSYSMVENFKEKSNVKEFKKIDDVIKDLRIIKTKEEIEIIEKACEIADKAVMAAIEEITEGKREREVAAKVEYLMKMNGAEKPAFDTIIASGHRSALPHGVASDKRIERGDLVVIDLGALYNHYNSDITRTIVVGSPNEKQREIYEIVLEAQKRAVEAAKPGMTAKELDSIAREIIKEYGYGDYFIHSLGHGVGLEIHEWPRISQYDETVLKEGMVITIEPGIYIPKLGGVRIEDTVLITENGAKRLTKTERELL | not soluble |
| AHHHHHHGSKLIEMLKEITQVPGISGYEERVREKIIEWIKDYADYKVDEIGNLIVELGEGEVKAVFMAHMDEIGLLITGITQDGKLRFRKVGGIDDRLLYGRHVDVITENGKLDGVIGALPPHLNVKGVKDVVPWYQLTIDIGAESKEEALSLGVKPLDYAVFKKHFSVLNNKIVSTRSLDDRFGVVALVQAIRNLVDHELSGKFIFAFTVQEEIGLKGAKFLAEKYSPEYAFAIDSFACCSELTGDVRLGGGAVIRAVDNSAIYSRDLARKVWEIAEKNNIPIQIGVTGGGTDASVFQHKSKVLALSVPMKYLHSEVEMLNVKDLEALIALIEAITFEI | soluble |
| AHHHHHHGSKLTHVDEKGVKMVEVGHKKDMYRRAIAKGRIKLKPETIKLIREGKIEKGNVLAAAQIAGILAVKKTFDIIPLCHPIPLTGVDITFDFGEDYIEVTCEVRAIYKTGVEMEALTGVSVALLTIWDMVKAVEKDEKGQYPYTKIEEIRVVEKIKEERS | soluble |
| AHHHHHHGSKVVALLSSGIDSPVAIHLMASRGVEVYPLHFRQDEVKERKVRKVVKKLQEIHGEKVKDPHTVNAYEVQAPVFEKLKEIKKGKWTCVFCKYTMYIVAESYAKKVGASAIITGDSLGQVASQTLDNLLVISTATKLPVIRPLIGLDKEEIVKIAKEIGTFEISIEEEPPCPFVPKFPVVRAGLGEFQKILSQVKDKLPRGDL | soluble |

— the DeepSol protein solubility set
